Assay results taken from paper PMC10786891, “Massively parallel profiling of RNA-targeting CRISPR-Cas13d”.

T1: EsCas13d, nuclease-dead (Eubacterium siraeum, UniProt B0MS50, R295A;H300A;R849A;H854A)
T1 sequence: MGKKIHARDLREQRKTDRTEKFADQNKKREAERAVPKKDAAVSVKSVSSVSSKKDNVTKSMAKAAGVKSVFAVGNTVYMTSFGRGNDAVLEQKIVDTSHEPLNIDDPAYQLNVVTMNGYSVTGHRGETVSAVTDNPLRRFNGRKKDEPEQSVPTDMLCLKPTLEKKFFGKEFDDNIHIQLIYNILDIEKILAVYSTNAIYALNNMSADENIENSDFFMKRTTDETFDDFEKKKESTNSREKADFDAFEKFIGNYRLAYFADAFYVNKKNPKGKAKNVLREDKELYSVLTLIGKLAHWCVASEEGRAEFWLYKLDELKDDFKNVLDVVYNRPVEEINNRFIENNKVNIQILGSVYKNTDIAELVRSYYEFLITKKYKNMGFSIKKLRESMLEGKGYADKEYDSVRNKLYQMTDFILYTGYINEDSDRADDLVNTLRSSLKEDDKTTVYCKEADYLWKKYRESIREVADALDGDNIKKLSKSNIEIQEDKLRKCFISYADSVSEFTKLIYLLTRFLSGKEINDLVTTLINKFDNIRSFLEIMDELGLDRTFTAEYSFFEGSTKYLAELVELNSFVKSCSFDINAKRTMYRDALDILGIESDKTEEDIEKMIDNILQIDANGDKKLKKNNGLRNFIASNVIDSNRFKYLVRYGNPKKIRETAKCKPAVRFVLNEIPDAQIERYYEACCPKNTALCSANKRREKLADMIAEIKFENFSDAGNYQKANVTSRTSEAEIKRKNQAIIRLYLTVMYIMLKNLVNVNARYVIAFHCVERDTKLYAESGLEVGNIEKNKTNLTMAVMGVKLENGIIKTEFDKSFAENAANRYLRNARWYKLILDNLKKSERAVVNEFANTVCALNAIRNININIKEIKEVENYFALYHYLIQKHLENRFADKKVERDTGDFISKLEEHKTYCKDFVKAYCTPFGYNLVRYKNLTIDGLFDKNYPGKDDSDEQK


biological target: T1, EsCas13d, nuclease-dead; assay: crRNA (strand 1, pre-loaded); Mg2+; 40 mM Tris-HCl pH 7.5, 150 mM NaCl, 6 mM MgCl2, 1 mM DTT, 0.1% Tween-20, 0.2 mg/ml BSA; 25 C; 10 min per concentration, then washed; settings: tags: His6-TwinStrep-SUMO cleaved; N-terminal SNAP kept (SNAP-Surface 488); label: 3' end held by stalled T7 RNA polymerase

| Binder | Kd |
| --- | --- |
| target 1 insA 3' of 2 (mixed) RNA 1: CACCCGUGCAAAAAUGCAGGGGUCUAAAACUGAGCGGAUAACCUCUCUAUGG RNA 2: GGGAAUGGAUCCACAUCUACGAAUUCGUACCAUAGAGAGGUUAUCCGCUCAACCGAGAUCGGAAGAGCACACGU | 8.5 ± 0.5 nM |
| target 1 insC 3' of 5,insG 3' of 4 (mixed) RNA 1: CACCCGUGCAAAAAUGCAGGGGUCUAAAACUGAGCGGAUAACCUCUCUAUGG RNA 2: GGGAAUGGAUCCACAUCUACGAAUUCGUACCAUAGAGAGGUUAUCCGCCGUCACCGAGAUCGGAAGAGCACACGU | 9.2 ± 0.8 nM |
| target 1 U8G,G15U (mixed) RNA 1: CACCCGUGCAAAAAUGCAGGGGUCUAAAACUGAGCGGAUAACCUCUCUAUGG RNA 2: GGGAAUGGAUCCACAUCUACGAAUUCGUACCAUAGAUAGGUUAGCCGCUCACCGAGAUCGGAAGAGCACACGU | 73 ± 12 nM |
| target 1 insC 3' of 22,insC 3' of 20 (mixed) RNA 1: CACCCGUGCAAAAAUGCAGGGGUCUAAAACUGAGCGGAUAACCUCUCUAUGG RNA 2: GGGAAUGGAUCCACAUCUACGAAUUCGUACCCACUAGAGAGGUUAUCCGCUCACCGAGAUCGGAAGAGCACACGU | 13.3 ± 1.7 nM |
| target 1 insG 3' of 16,insU 3' of 15 (mixed) RNA 1: CACCCGUGCAAAAAUGCAGGGGUCUAAAACUGAGCGGAUAACCUCUCUAUGG RNA 2: GGGAAUGGAUCCACAUCUACGAAUUCGUACCAUAGAGGUAGGUUAUCCGCUCACCGAGAUCGGAAGAGCACACGU | 26 ± 4 nM |
| target 1 insU 3' of 12,insA 3' of 11 (mixed) RNA 1: CACCCGUGCAAAAAUGCAGGGGUCUAAAACUGAGCGGAUAACCUCUCUAUGG RNA 2: GGGAAUGGAUCCACAUCUACGAAUUCGUACCAUAGAGAGGUUAUAUCCGCUCACCGAGAUCGGAAGAGCACACGU | 13 ± 0.9 nM |
| target 1 A9U,U19G (mixed) RNA 1: CACCCGUGCAAAAAUGCAGGGGUCUAAAACUGAGCGGAUAACCUCUCUAUGG RNA 2: GGGAAUGGAUCCACAUCUACGAAUUCGUACCAGAGAGAGGUUUUCCGCUCACCGAGAUCGGAAGAGCACACGU | 72 ± 9 nM |
| target 1 insA 3' of 22,insC 3' of 10 (mixed) RNA 1: CACCCGUGCAAAAAUGCAGGGGUCUAAAACUGAGCGGAUAACCUCUCUAUGG RNA 2: GGGAAUGGAUCCACAUCUACGAAUUCGUACACAUAGAGAGGUUCAUCCGCUCACCGAGAUCGGAAGAGCACACGU | 29 ± 4 nM |
| target 1 insG 3' of 21,insG 3' of 21 (mixed) RNA 1: CACCCGUGCAAAAAUGCAGGGGUCUAAAACUGAGCGGAUAACCUCUCUAUGG RNA 2: GGGAAUGGAUCCACAUCUACGAAUUCGUACCGGAUAGAGAGGUUAUCCGCUCACCGAGAUCGGAAGAGCACACGU | 87 ± 24 nM |
| target 1 insG 3' of 8,insA 3' of 7 (mixed) RNA 1: CACCCGUGCAAAAAUGCAGGGGUCUAAAACUGAGCGGAUAACCUCUCUAUGG RNA 2: GGGAAUGGAUCCACAUCUACGAAUUCGUACCAUAGAGAGGUUAUGCACGCUCACCGAGAUCGGAAGAGCACACGU | 10.6 ± 0.6 nM |
| target 1 insC 3' of 17,insC 3' of 1 (mixed) RNA 1: CACCCGUGCAAAAAUGCAGGGGUCUAAAACUGAGCGGAUAACCUCUCUAUGG RNA 2: GGGAAUGGAUCCACAUCUACGAAUUCGUACCAUAGCAGAGGUUAUCCGCUCACCCGAGAUCGGAAGAGCACACGU | 39 ± 4 nM |
| target 1 insA 3' of 17,insG 3' of 8 (mixed) RNA 1: CACCCGUGCAAAAAUGCAGGGGUCUAAAACUGAGCGGAUAACCUCUCUAUGG RNA 2: GGGAAUGGAUCCACAUCUACGAAUUCGUACCAUAGAAGAGGUUAUGCCGCUCACCGAGAUCGGAAGAGCACACGU | 14.7 ± 1.7 nM |
| target 1 C2A,G5U (mixed) RNA 1: CACCCGUGCAAAAAUGCAGGGGUCUAAAACUGAGCGGAUAACCUCUCUAUGG RNA 2: GGGAAUGGAUCCACAUCUACGAAUUCGUACCAUAGAGAGGUUAUCCUCUAACCGAGAUCGGAAGAGCACACGU | 24 ± 1.9 nM |
| target 1 insG 3' of 14,insU 3' of 2 (mixed) RNA 1: CACCCGUGCAAAAAUGCAGGGGUCUAAAACUGAGCGGAUAACCUCUCUAUGG RNA 2: GGGAAUGGAUCCACAUCUACGAAUUCGUACCAUAGAGAGGGUUAUCCGCUCUACCGAGAUCGGAAGAGCACACGU | 12.5 ± 0.8 nM |
| target 1 insG 3' of 16,insG 3' of 2 (mixed) RNA 1: CACCCGUGCAAAAAUGCAGGGGUCUAAAACUGAGCGGAUAACCUCUCUAUGG RNA 2: GGGAAUGGAUCCACAUCUACGAAUUCGUACCAUAGAGGAGGUUAUCCGCUCGACCGAGAUCGGAAGAGCACACGU | 14.4 ± 2.5 nM |
| target 1 insC 3' of 17,insU 3' of 1 (mixed) RNA 1: CACCCGUGCAAAAAUGCAGGGGUCUAAAACUGAGCGGAUAACCUCUCUAUGG RNA 2: GGGAAUGGAUCCACAUCUACGAAUUCGUACCAUAGCAGAGGUUAUCCGCUCAUCCGAGAUCGGAAGAGCACACGU | 66 ± 21 nM |
| target 1 G12U,U19C (mixed) RNA 1: CACCCGUGCAAAAAUGCAGGGGUCUAAAACUGAGCGGAUAACCUCUCUAUGG RNA 2: GGGAAUGGAUCCACAUCUACGAAUUCGUACCACAGAGAGUUUAUCCGCUCACCGAGAUCGGAAGAGCACACGU | 42 ± 6 nM |
| target 1 U10A,C22U (mixed) RNA 1: CACCCGUGCAAAAAUGCAGGGGUCUAAAACUGAGCGGAUAACCUCUCUAUGG RNA 2: GGGAAUGGAUCCACAUCUACGAAUUCGUAUCAUAGAGAGGUAAUCCGCUCACCGAGAUCGGAAGAGCACACGU | 20.8 ± 2.8 nM |
| target 1 insU 3' of 9,insA 3' of 7 (mixed) RNA 1: CACCCGUGCAAAAAUGCAGGGGUCUAAAACUGAGCGGAUAACCUCUCUAUGG RNA 2: GGGAAUGGAUCCACAUCUACGAAUUCGUACCAUAGAGAGGUUAUUCACGCUCACCGAGAUCGGAAGAGCACACGU | 9.5 ± 0.4 nM |
| target 1 insC 3' of 12,insG 3' of 11 (mixed) RNA 1: CACCCGUGCAAAAAUGCAGGGGUCUAAAACUGAGCGGAUAACCUCUCUAUGG RNA 2: GGGAAUGGAUCCACAUCUACGAAUUCGUACCAUAGAGAGGCUGUAUCCGCUCACCGAGAUCGGAAGAGCACACGU | 11.7 ± 0.8 nM |
| target 1 insG 3' of 21,insA 3' of 19 (mixed) RNA 1: CACCCGUGCAAAAAUGCAGGGGUCUAAAACUGAGCGGAUAACCUCUCUAUGG RNA 2: GGGAAUGGAUCCACAUCUACGAAUUCGUACCGAUAAGAGAGGUUAUCCGCUCACCGAGAUCGGAAGAGCACACGU | 64 ± 15 nM |
| target 1 C2G,U19A (mixed) RNA 1: CACCCGUGCAAAAAUGCAGGGGUCUAAAACUGAGCGGAUAACCUCUCUAUGG RNA 2: GGGAAUGGAUCCACAUCUACGAAUUCGUACCAAAGAGAGGUUAUCCGCUGACCGAGAUCGGAAGAGCACACGU | 24.9 ± 2.7 nM |
| target 1 insG 3' of 14,insA 3' of 12 (mixed) RNA 1: CACCCGUGCAAAAAUGCAGGGGUCUAAAACUGAGCGGAUAACCUCUCUAUGG RNA 2: GGGAAUGGAUCCACAUCUACGAAUUCGUACCAUAGAGAGGGAUUAUCCGCUCACCGAGAUCGGAAGAGCACACGU | 23.7 ± 1.7 nM |
| target 1 insC 3' of 20,insG 3' of 19 (mixed) RNA 1: CACCCGUGCAAAAAUGCAGGGGUCUAAAACUGAGCGGAUAACCUCUCUAUGG RNA 2: GGGAAUGGAUCCACAUCUACGAAUUCGUACCACUGAGAGAGGUUAUCCGCUCACCGAGAUCGGAAGAGCACACGU | 47 ± 7 nM |
